In assay [1] the target is HLA-A*02:03. The experiment in a line: IEDB peptide-MHC binding, purified MHC/competitive/fluorescence; filed as Kd, often an IC50 or EC50 that approximates it; ≥ and ≤ were set here for values at or beyond the usual limits of such assays. As to conditions: source organism: Bacillus anthracis str. A0488.
A further assay has as its target HLA-B*15:17. Described as above. As to conditions: source organism: Bacillus anthracis str. A0488.
The target in assay [2] is HLA-A*02:01. The experiment in a line: IEDB peptide-MHC binding, purified MHC/direct/fluorescence; filed as Kd, often an IC50 or EC50 that approximates it; ≥ and ≤ were set here for values at or beyond the usual limits of such assays.
Another assay addresses HLA-A*26:03. The description is as above.
The target in another assay is HLA-B*27:05. Described as above. Particulars: source organism: Bacillus anthracis.
For a further assay, the target named is HLA-A*69:01. The description is as above. Particulars: source organism: Bacillus anthracis.
The target in the next assay is HLA-A*01:01. Described as above. Particulars: source organism: Bacillus anthracis.
The target of the next assay is HLA-A*26:02. Described as above. As to conditions: source organism: Picosynechococcus sp. PCC 7002.
The target in another assay is HLA-B*48:01. Described as above. As to conditions: source organism: Bacillus anthracis.
For the next assay, the target named is HLA-B*07:02. Described as above. As to conditions: source organism: Bacillus anthracis.
The target in a further assay is HLA-A*11:01. The assay is described as above. As to conditions: source organism: Bacillus anthracis.
A further assay has as its target HLA-A*31:01. Described as above. Particulars: source organism: Bacillus anthracis.
The target of assay [3] is HLA-B*15:01. The description is as above.
In another assay the target is HLA-B*39:01. Described as above. Particulars: source organism: Picosynechococcus sp. PCC 7002.
In the next assay the target is HLA-A*03:01. The assay is described as above.
Assay [4] deals with HLA-B*08:01. The assay is described as above. Particulars: source organism: Picosynechococcus sp. PCC 7002.
The target in another assay is HLA-B*40:01. Described as above. Particulars: source organism: Bacillus anthracis.
In the next assay the target is HLA-B*46:01. The assay is described as above.
The target of the next assay is HLA-B*58:01. The description is as above. Particulars: source organism: Bacillus anthracis.
The target in a further assay is HLA-B*57:01. The description is as above.
The target of another assay is HLA-C*06:02. The assay is described as above.
A further assay deals with HLA-C*08:02. The assay is described as above.
The target in another assay is HLA-B*15:42. The experiment in a line: IEDB peptide-MHC binding, purified MHC/competitive/fluorescence; filed as Kd, often an IC50 or EC50 that approximates it; ≥ and ≤ were set here for values at or beyond the usual limits of such assays.
Another assay concerns the target HLA-C*04:01. The assay is described as above. As to conditions: source organism: Escherichia coli.
In assay [5] the target is HLA-B*15:01. Described as above. As to conditions: source organism: Escherichia coli.
Another assay deals with HLA-B*83:01. The assay is described as above.
In assay [6] the target is HLA-B*08:01. The assay is described as above. As to conditions: source organism: Escherichia coli.
The target in a further assay is HLA-B*45:06. Described as above.
Another assay concerns the target HLA-A*68:23. The assay is described as above. As to conditions: source organism: Cryptosporidium parvum Iowa II.
The target of another assay is HLA-C*14:02. Described as above. As to conditions: source organism: Cryptosporidium parvum Iowa II.
Assay [7] concerns the target HLA-A*02:03. In words: IEDB peptide-MHC binding, purified MHC/direct/fluorescence; filed as Kd, often an IC50 or EC50 that approximates it; ≥ and ≤ were set here for values at or beyond the usual limits of such assays. As to conditions: source organism: Cryptosporidium parvum Iowa II.
The target in a further assay is HLA-A*24:03. The assay is described as above. Particulars: source organism: Cryptosporidium parvum Iowa II.
Another assay addresses HLA-A*02:16. The description is as above. Particulars: source organism: Cryptosporidium parvum Iowa II.
For another assay, the target named is HLA-A*23:01. The assay is described as above. Particulars: source organism: Cryptosporidium parvum Iowa II.
Another assay addresses HLA-C*05:01. Described as above. As to conditions: source organism: Cryptosporidium parvum Iowa II.
The target of another assay is HLA-A*02:12. The assay is described as above.
The target of the next assay is HLA-A*29:02. The assay is described as above. As to conditions: source organism: Cryptosporidium parvum Iowa II.
Another assay deals with HLA-A*26:01. The description is as above. Particulars: source organism: Cryptosporidium parvum Iowa II.
The target in a further assay is HLA-B*27:03. The assay is described as above. As to conditions: source organism: Cryptosporidium parvum Iowa II.
The next assay deals with HLA-A*02:19. The description is as above.
In the next assay the target is HLA-B*51:01. The description is as above. Particulars: source organism: Cryptosporidium parvum Iowa II.
The target of another assay is HLA-A*02:11. Described as above.
Assay [8] has as its target HLA-A*02:01. The experiment in a line: IEDB peptide-MHC binding, purified MHC/competitive/fluorescence; ≥ and ≤ were set here for values at or beyond the usual limits of such assays. As to conditions: source organism: Monodelphis domestica.
A further assay deals with HLA-A*68:02. The description is as above. As to conditions: source organism: Monodelphis domestica.
Setting [9] is: source organism: Bacillus anthracis.
Where [10] appears, read: source organism: Mycobacterium tuberculosis C.
Where [11] appears, read: source organism: Escherichia coli.
Setting [12] is: source organism: Cryptosporidium parvum Iowa II.
[13] abbreviates: source organism: Francisella tularensis subsp. tularensis FSC198.
Where [14] appears, read: source organism: Francisella tularensis subsp. tularensis FSC033.

This is an account of results in the Immune Epitope Database (IEDB).

A value given as a limit tells only on which side of the number the result lay.

A word on the Kd: it is the concentration at which binding is half-saturated. With DTVLFNAGL, the Kd is no less than 20 µM in the assay with HLA-A*02:03 [1]; no less than 20 µM in the assay with HLA-B*15:17; no less than 20 µM with HLA-A*02:01 [2] (setting [9]); 0.054 µM with HLA-A*26:03 (source organism: Picosynechococcus sp. PCC 7002); no less than 20 µM with HLA-B*27:05; no more than 0.001 µM with HLA-A*69:01. For the same sequence, the Kd was no less than 20 µM with HLA-A*01:01; 0.041 µM with HLA-A*26:02; no less than 20 µM with HLA-B*48:01; no less than 20 µM in the assay with HLA-B*07:02; no less than 20 µM with HLA-A*11:01; no less than 20 µM with HLA-A*31:01. Also, the Kd with HLA-B*15:01 [3] (setting [9]), with HLA-B*39:01, in the assay with HLA-A*03:01 (setting [9]), with HLA-B*08:01 [4], with HLA-B*40:01 and with HLA-B*46:01 (setting [9]) was no less than 20 µM in each case. Also, the Kd with HLA-B*58:01 and with HLA-B*57:01 (setting [9]) was no less than 20 µM throughout.

Regarding FAPDRVGAL, the values for the Kd with HLA-C*06:02 (setting [10]) and in the assay with HLA-C*08:02 (setting [10]) were 1.89 µM and 0.673 µM, respectively.

As for GTIIAHGGL, the Kd with HLA-A*26:03 (source organism: Rickettsia prowazekii) was no less than 20 µM.

Consider MERFSWHVA, for which the Kd with HLA-B*15:42 (setting [11]) was no less than 5 µM; with HLA-C*04:01, no less than 5 µM; with HLA-B*15:01 [5], no less than 20 µM; with HLA-B*83:01 (setting [11]) it was no less than 5 µM; with HLA-B*08:01 [6], no less than 20 µM; with HLA-B*45:06 (setting [11]), 4.81 µM.

For MPMSMPIPM, the Kd in the assay with HLA-A*68:23 is 0.0027 µM; with HLA-B*15:42 (setting [12]), no less than 5 µM; with HLA-C*14:02, 0.125 µM; in the assay with HLA-B*83:01 (setting [12]), 0.0395 µM; with HLA-B*45:06 (setting [12]) it was no less than 5 µM; with HLA-A*02:03 [7] it was no less than 20 µM. Also, the Kd with HLA-A*02:01 [2] (setting [12]), with HLA-A*24:03, in the assay with HLA-A*02:16, in the assay with HLA-A*23:01, with HLA-C*05:01 and with HLA-A*02:12 (setting [12]) was no less than 20 µM throughout. Also, the Kd with HLA-A*29:02, with HLA-A*26:01, with HLA-B*15:01 [3] (setting [12]), with HLA-B*27:03, with HLA-A*02:19 (setting [12]) and in the assay with HLA-A*03:01 (setting [12]) was no less than 20 µM in each case. In addition, the Kd is no less than 20 µM with HLA-B*46:01 (setting [12]), 5.84 µM in the assay with HLA-B*51:01, no less than 20 µM with HLA-A*02:11 (setting [12]) and no less than 20 µM with HLA-B*57:01 (setting [12]).

Consider YMYQYIQEL, for which the Kd is no more than 0.001 µM with HLA-A*02:01 [2] (source organism: Francisella tularensis subsp. holarctica LVS); 0.006 µM in the assay with HLA-C*06:02 (setting [13]); 0.002 µM with HLA-A*02:12 (setting [14]); 0.002 µM with HLA-A*02:19 (setting [14]); 0.736 µM in the assay with HLA-C*08:02 (setting [13]); no more than 0.001 µM with HLA-A*02:11 (setting [14]).

One may read the IC50 as the concentration that inhibits the measured activity by half. Low readings indicate higher potency, high ones lower potency. In the case of YSLEYFQFV, the results for the IC50 with HLA-A*02:01 [8] and in the assay with HLA-A*68:02 were 0.0592 µM and 0.106 µM, respectively. For the same sequence, the Kd with HLA-C*08:02 (source organism: Hylobates lar) was no less than 20 µM.
